The series can be described thus: label from the status in PepcDB records.
As for “MVSDADASTSSSSIDIMPSANIQNDVPEPSVHTSHRRTRKPAYLQDYYCHSVASLTIHDISQFLSYEKVSPLYHSFLVCIAKAKEPSTYNEAKEFLVWCGAMDDEIGAMETTHTWEICTLPPNKKPIGCKWVYKIKYNSDGTIERYKARLVAKGYTQQEGIDFIETFSPVCKLTSVKLILAISAIYNFTLHQLDISNAFLNGDLDEEIYMKLPPGYAARQGDSLPPNAVCYLKKSIYGLKQASRQWFLKFSVTLIGFGFVQSHSDHTYFLKITATLFLCVLVYVDDIIICSNNDAAVDELKSQLKSCFKLRDLGPLKYFLGLEIARSAAGINICQRKYALDLLDETGLLGCKPSSVPMDPSVTFSAHSGGDFVDAKAYRRLIGRLMYLQITRLDISFAVNKLSQFSEAPRLAHQQAVMKILHYIKGTVGQGLFYSSQAEMQLQVFSDASFQSCKDTRRSTNGYCMFLGTSLISWKSKKQQVVSKSSAEAEYRALSFATDEMMWLAQFFRELQLPLSKPTLLFCDNTAAIHIATNAVFHERTKHIESDCHSVRERSVYQATLSYSFQAYDEQDGFTEYLSPILRGTIMYIVSMFGLAGLEALICFIFLFLFSFLTSFKASAQNPFYLNHDCPNRTTYSSNSTYSTNLKTLLSSFASRNASYSTGFQNIRAGQTPDRVTGLFLCRGDLSPEVCSNCVAFSVNESLTRCPNQREAVFYYEECILRYSHKNFLSTVTYEGELIMRNPNNISSIQNQRDQFIDLVQSNMNQAANEAANSSRKFSTIKTELTSLQTLYGLVQCTPDLARQDCFSCLTSSINRMMPLFRIGARQFWPSCNSRYELYAFYNETAIGTPSPPPLFPGSTPPLTSPSIPGKSGNSTVLVVAIVVLAVLLFIALVGYCFLAQRTKKTFDTASASEVGDDMATADSLQLDYRTIQTATNDFAESNKIGRGGFGEVYKGTFSNGKEVAVKRLSKNSRQGEAEFKTEVVVVAKLQHRNLVRLLGFSLQGEERILVYEYMPNKSLDCLLFDPTKQTQLDWMQRYNIIGGIARGILYLHQDSRLTIIHRDLKASNILLDADINPKIADFGMARIFGLDQTQDNTSRIVGTYGYMAPEYAMHGQFSMKSDVYSFGVLVLEIISGRKNSSFDESDGAQDLLTHTWRLWTNRTALDLVDPLIANNCQNSEVVRCIHIGLLCVQEDPAKRPTISTVFMMLTSNTVTLPVPRQPGFFIQSSPVKDPTDSDQSTTTKSTPASIDDELITDLYPR”, the protein production result was “failed”.
Consider “MTHPFEPFFDKDSKILILGSFPSIKSRQDGFYYQHPRNRFWPILETLFNAKLENITEQQAFLRKKHIALWDVLQSCKIKNSDDKTISYAKANDLNLILSQTKIQAIFTTGQSAYRFFVKFHPRLEAIALPSTSPANLNFSFEQLLQNYEIIKKFTKLEHHHHHH”, for which the protein production result was “failed”.
With “MTFHKIFFVISLMLVVSLVNAVDYSVVDNSGDSTGGRRFRGEIGGISYGTQTLRSATDFVWRLFQQTNPSDRKSVTKITLFMENGDGVAYNSGNEIHFNVGYLAGVYRS”, the protein production entry was “not failed”.
As to “MQEKGFKEGVKASLPTALGYVSIGLACGVVGANSGLTPFQMGLMSLLVYAGSAQFVMCAMFVAGADLFSIVMTVFLINLRNFLMSLHATTIFTKSSLWQTICIGTLITDESYGVLLNEHVHHKNISTAWMHGNNITGYIAWLFAVILGTALGSVIPNPETLGLDFALIAMFVSIFESQLAAMMQFVKLKKIGLILLAVTLSYFLLVIVISESLAVLLSTLIGCFAGVLLDVR”, the protein production result is listed as “failed”.
As for “GHMARTVNLKGNPVTLVGPELKVGDRAPEAVVVTKDLQEKIVGGAKDVVQVIITVPSLDTPVCETETKKFNEIMAGMEGVDVTVVSMDLPFAQKRFCESFNIQNVTVASDFRYRDMEKYGVLIGEGALKGILARAVFIIDKEGKVAYVQLVPEITEEPNYDEVVNKVKELI”, the protein production entry is recorded as “not failed”.
To “MQHLREWLSDWFRRILPNAQAVSFAILLVVGFIVVVSLAKMLMPVFAAGIIAYLLDGLVEIGERRKLPRLVSVIVVYLLFLALLLVVFIGLLPLLYQQTLQLIEQAPSWVNRGQVLIMELPERYPDYITQEQVNDLIGAIRAELISYGQSMLTYSYASLVSLITVVVYFILVPLLVFFFLKDRDRILGWFTQYLPRDRNLSNRVWKEVDMQIGNYVRGKFVEIVILFAASFVTFSLMGLNYALLLAVLMGISVIIPYVGATLVTFPVMIVAFFQWGVSDDFWYLMLAYAIIQALDGVMLVPLLFSEVVNLHPVAIIVAILFFGGWWGFWGVFFAIPLATLVKAVLSAWPRLGEGEMPAAGGP” belongs “failed”; to “MSKGTLFDKVWDLHTVGTLPSGLTQLFIGLHLVHEVTSPQAFAMLRERGLKVLFPERTVATVDHIVPTENQARPFVDRLAEEMIQALEQNCQENNITFYNIGSGNQGIVHVIAPELGLTQPGMTIACGDSHTSSHGAFGAIAFGIGTSQVRDVLASQTLSLSKLKVRKIEVNGTLNPGVYAKDVILHIIRTLGVKGGVGYAYEYAGTTFEQMNMEERMTVCNMAIEGGARCGYVNPDQVTYDYLQGRDFAPQGADWEKAVAWWESIKSDADAEYDDVIVFNAADIPPTVTWGITPGQGIGVNQLIPQPEELLEEDRFVAEEAYRYMDLYPGQPIKGTKIDVCFIGSCTNGRLSDLQEAAKIAKGRHVAEGVKAFVVPGSERVKKAAEAEGLDKIFEAAGFEWREPGCSMCLAMNPDKLEGRQISASSSNRNFKGRQGSASGRTLLMSPAMVATAAIQGEVADVRELL”, “not failed”.
On to “MIGHRISRLGSTIVKQLAREGYLATYGTKNLHRSYGHYLQSLPVVPRQARTSQEAWFLKSHKFCTSSTTSSENGDEETEKITIIFVDKDGEEIPVKVPIGMSVLEAAHENDIDLEGACEASLACSTCHVIVMDTEYYNKLEEPTDEENDMLDLAFGLTETSRLGCQVIARPELDGVRLAIPSATRNFAVDGFVPKPH”, for which the protein production entry is recorded as “failed”.
Regarding “MVKCLSAHNKAPHVSVITPSYNSRRFIGETILSVQNQSYENWEMIIVDDCSTDQSAAKIKEIIEGDSRIRLLSLKENVGAAKARNLAIREARGRYIAFLDSDDIWLPHKLKTQLLFMEEMNIAFSYASYSLIDENGNELNREVSVPKSVDYHYLVGNTIIGCLTVMIDREKIPYVEMPSVQPEDTALWLNLLHEGHEAKGIQQVLAKYRIVANSVSSNKVRAAFRYWKLLRDQKSLNAVQSFYYFSKYAYHAYKKNKINVVGKTQLLEHHHHHH”, the protein production entry was “failed”.
Take “MSYNLNLSHNIYKDAKLGTYYFRITYYDKSNTRKYITRKGFKQRKDAVKKCNEMMDELEGVGHLNRLPFDKLVEEYIDWYSARRKTSSVKALKTHTNNHLLPYFKSMDVFKMTTQDVMKFQNKKLKEGHSGDYLKKMHVYLVSLLNHAMKFHELKQNVASLVGNFEIESQKRLNYWTLEQFNQFYEALATQQQKLFFKLLFYSGARKGEIRALTWRDINFDDDFIHINKTDYHGEVTAPKTKSAIRDIYLPTHMMYDIKDYLIWYKENNIYKDDYVLFGTFYKAYSESTIDRWFTNALKVLDEQLPNGQNFPRIVIHELRHSHASMLVNLGASVMIIAQRLGHSDTTEVYNRYGHLYPSTQKEIVKYL”: the protein production entry is “failed”.
Take “MTLDANSAPVRDMASAHFSPGEDCRRKIRDLCRQARISVDICVFTISDDQLSDEIRACHQRGVAVRVISDSEKQFDVGSDIAALREAGVPVRIDDTPFHMHHKFAVFDGRTLLNGSFNWTRSATTGNEENLLVIDHPQLVASYLKEFNELWSRYAPRLEHHHHHH”: the protein production entry was “failed”.
For “MRLFIMEFKHLMFSKTFLFYCLLIIIFTVLNCQQVLKHPINSDVYQPQNMTMYSTDKNLIMSNEIKELKNEVHQNNFKTYQFGFLKQKKLNDQQISKIKKLISKMEKTNNFHQFKNYSNSVSHVVGWGSQYSKNNISLFGIKNMSKSKYVKEKNIIKNKEYYYGAYSRYFSDIMGVVLGILPFFLGAQMILQDKKSNAIKTIHSKSISSYQLISTRVFTILVLAYLPVLLVSIYFVTCLSMIHQISMFSLFIFYKILILWTLPTLIFTIAMGFFVTIILNSYLGVMIQIVIWFINLNIGSRAIEGCYGSLLIPRHNTLFNAVFFYNHFNQILANRFTYFGLGLLLILLSTYIFDLKRREVGFNAKIFTNRYQN”, the protein production entry is “failed”.
To “MEYLIYSLIAVIILTVGLNNIFKKQSKYFYMLATLISVVVTSYEIFKIWTGFKLEGIIFVLERSFMKGFVSTALFILVMFAGALSKKWGITKKLLRVRAEMAILASILILPHFIIYTYKFLVRLFSGKPLSILYISFIIVGLIAFIIMIPLFITSFKKVRVTMSPSKWKMVQRWAYPFYFLVYVHIILILFNKKVFNLNAVIIYTVIFLGYFILRICNNKKAIK” belongs “failed”; to “MGTGGITSNAHVVSPTWHHKHVPPMDDDSVLQRDIGELLSRWGGLQMAVKNQWGGHDSLKKSQELAHNLFHLISQSNGSIFFLLL”, “failed”.
Turning to “MMYFISDTHFYHENIINLNPEVRFKGFEIVILTNLLKVLKPEDTLYHLGDFTWHFNDKNEYLRIWKALPGRKILVMGNHDKDKESLKEYFDEIYDFYKIIEHKGKRILLSHYPAKDPITERYPDRQEMVREIYFKENCDLLIHGHVHWNREGIKCACKDYRIECINANVEWNDYKPISEREIDKLISYEKAKN”, the protein production result is listed as “not failed”.
As for “MKAAPARSAAYDNPYAKRLFLIIDSLPQMQRALAMTLSSFGANTVEYASKASDALAKMAKYEFDVVLCDYDLGNGYDGLYLFEEIRERNLLKQSCVFMIVTGERRAQRVISAAELAPDDYLLKPFTGEVLRDRLERAMRKREAFRLVDENILRHDYLSAIETCGRKIEENGEFALDFMRLKGSLALKINDFDTARDAYMQVLRLRPATWAKMGLAKSLAGLKSHDEARLLFEAVLADNNQVMEAYDWLARLYRGNHDLGRAQHTLQTAADMSPVVFRRQQQLAQVAVLNHDLAAAEAACQQTLDIAKYTWHRSPTHYAALLRVQLARGDNGNAVRTLANLKHDYRYNEEGEWLAGVMDSQLQAKNGNADKARELLEAAGERFKQLAPKLDQESQLEYARACYQQGRDGQGNAVMEYLVRNHHDDEDMLEHFGDMFEEIGLSQAGRQLIAQNVKSVLELNNQAVREAQSGQFDAAIERFVKALDEMPQNVQIMLNLINAVLAYVSQNGWHESHMRRAYELLGKVRDTAPTNNKFQKILQSWRLLVDKMDKPQWAL”, the protein production result is “failed”.
In the case of “MTKVLFVKANNRPAEQAVSVKLYEAFLASYKEAHPNDTVVELDLYKEELPYVGVDMINGTFKAGKGFDLTEEEAKAVAVADKYLNQFLEADKVVFGFPLWNLTIPAVLHTYIDYLNRAGKTFKYTPEGPVGLIGDKKIALLNARGGVYSEGPAAEVEMAVKYVASMMGFFGATNMETVVIEGHNQFPDKAEEIITAGLEEAAKVANKF”, the protein production entry is recorded as “not failed”.
In the case of “MSQQQKQYDIHWLTGQFFDSSKESRYRDSIKARVRFESRLALPLVSVVVAMFGITDYNLLGLTREFYWLLTMRIAVVSSCLVLAFAIGRWGGYSRNAWLHSLPLWILATGIILIVPLRPESISTQITAVVVAIMAFYLLIPNLLTVAALASLYLTVGFLSAAAVYAGIPSENVLRVSLLLIMANIVGYCALLRIEFLQRKQFALLQDERDQNRDLLKEIKHRKSLEAQLRMVAERDALTGLDSRSHFMKRAEALLQRAQLEKTPFCLFMIDVDHFKRINDTWGHTRGDLILTKIAEVCEQSLRPTDVIGRFGGEEFVVGLPHTSPSEAQTIAERLKENVEALPLTAELSELCLSVTIGIAAAHGEEDDLDVLITRADNMLYEGKREGRNRVVMFGEGMDS”, the protein production entry is “failed”.
Regarding “MADERYNRKNPAVKRILQEVKEMQANPSDDFMSLPLEENIFEWQFAIRGPGDTEFEGGIYHGRIQLPADYPFKPPSFMLLTPNGRFETNTKICLSISNYHPEHWQPSWSVRTALVALIAFMPTSPNGALGSVDYPKDERRTLAIKSRETPPKYGSPERQKIIDEIHQYILSKATVVPKPLPLECSQAPSIVSEAHSQVEPQEAITVVEERSIATTDTIVDDQIIEETAEAVNTAASVVPAAAPLPAVEVVVKASVSGEQRMARRAAQKPVDDRLFTWAAVGLTIAIMVLLLKKFIKSNGYSTGFMDDQS”, the protein production entry was “failed”.
